Six sequences from the supplement of paper PMC11246515 can be followed below.

A short description of this data set: total protein half-life in vivo (active degradation + dilution); higher = more stable protein.
Where [1] appears, read: E. coli NCM3722 delta-clpP delta-lon delta-hslV, growth: N-lim chemostat, doubling time 6 h.
Where [2] appears, read: E. coli NCM3722 delta-clpP, growth: N-lim chemostat, doubling time 6 h.
The mark [3] stands for this setting: E. coli NCM3722 delta-hslV, growth: N-lim chemostat, doubling time 6 h.
Where [4] appears, read: E. coli NCM3722 delta-lon, growth: N-lim chemostat, doubling time 6 h.
Setting [5] is: E. coli NCM3722 delta-smpB, growth: N-lim chemostat, doubling time 6 h.
Setting [6] is: wild type E. coli NCM3722, growth: C-lim chemostat, doubling time 3 h.
Where [7] appears, read: wild type E. coli NCM3722, growth: C-lim chemostat, doubling time 6 h.
[8] abbreviates: wild type E. coli NCM3722, growth: C-lim chemostat, doubling time 12 h.
The mark [9] stands for this setting: wild type E. coli NCM3722, growth: N-lim chemostat, doubling time 6 h.
The mark [10] stands for this setting: wild type E. coli NCM3722, growth: N-lim chemostat, doubling time 12 h.
The mark [11] stands for this setting: wild type E. coli NCM3722, growth: P-lim chemostat, doubling time 6 h.
[12] abbreviates: wild type E. coli NCM3722, growth: P-lim chemostat, doubling time 12 h.

± gives the standard deviation of the averaged measurements.

For the sequence “MAKEKKRGFFSWLGFGQKEQTPEKETEVQNEQPVVEEIVQAQEPVKASEQAVEEQPQAHTEAEAETFAADVVEVTEQVAESEKAQPEAEVVAQPEPVVEETPEPVAIEREELPLPEDVNAEAVSPEEWQAEAETVEIVEAAEEEAAKEEITDEELETALAAEAAEEAVMVVPPAEEEQPVEEIAQEQEKPTKEGFFARLKRSLLKTKENLGSGFISLFRGKKIDDDLFEELEEQLLIADVGVETTRKIITNLTEGASRKQLRDAEALYGLLKEEMGEILAKVDEPLNVEGKAPFVILMVGVNGVGKTTTIGKLARQFEQQGKSVMLAAGDTFRAAAVEQLQVWGQRNNIPVIAQHTGADSASVIFDAIQAAKARNIDVLIADTAGRLQNKSHLMEELKKIVRVMKKLDVEAPHEVMLTIDASTGQNAVSQAKLFHEAVGLTGITLTKLDGTAKGGVIFSVADQFGIPIRYIGVGERIEDLRPFKADDFIEALFARED”, the “total protein half-life in vivo” value under setting [1] came to 5.949 ± 0.013 h; the “total protein half-life in vivo” value under setting [2] was determined as 6.16 ± 0.62 h; the “total protein half-life in vivo” value under setting [3] came to 6.29 ± 0.82 h; the “total protein half-life in vivo” value under setting [4] turned out to be 5.53 ± 0.3 h; the “total protein half-life in vivo” value under setting [5] came out at 5.61 ± 0.034 h; the “total protein half-life in vivo” value under setting [6] amounted to 3.038 ± 0.019 h. Further, the “total protein half-life in vivo” value worked out at 5.835 ± 0.012 h under setting [7]; 11.1 ± 1.8 h under setting [8]; 5.94 ± 0.28 h under setting [9]; 10.7 ± 0.25 h under setting [10]; 5.64 ± 0.21 h under setting [11]; 11.92 ± 0.0035 h under setting [12].
For the sequence “MPLPDFHVSEPFTLGIELEMQVVNPPGYDLSQDSSMLIDAVKNKITAGEVKHDITESMLELATDVCRDINQAAGQFSAMQKVVLQAATDHHLEICGGGTHPFQKWQRQEVCDNERYQRTLENFGYLIQQATVFGQHVHVGCASGDDAIYLLHGLSRFVPHFIALSAASPYMQGTDTRFASSRPNIFSAFPDNGPMPWVSNWQQFEALFRCLSYTTMIDSIKDLHWDIRPSPHFGTVEVRVMDTPLTLSHAVNMAGLIQATAHWLLTERPFKHQEKDYLLYKFNRFQACRYGLEGVITDPHTGDRRPLTEDTLRLLEKIAPSAHKIGASSAIEALHRQVVSGLNEAQLMRDFVADGGSLIGLVKKHCEIWAGD”, the “total protein half-life in vivo” value under setting [1] was 4.72 ± 0.45 h; the “total protein half-life in vivo” value under setting [2] came to 4.3 ± 0.47 h; the “total protein half-life in vivo” value under setting [3] is 4.35 ± 0.24 h; the “total protein half-life in vivo” value under setting [4] came to 4.85 ± 0.29 h; the “total protein half-life in vivo” value under setting [5] was 4.73 h; the “total protein half-life in vivo” value under setting [8] is 9.5 ± 0.29 h. The “total protein half-life in vivo” value under setting [9] is 4.59 h, the “total protein half-life in vivo” value under setting [10] is 9.74 h, the “total protein half-life in vivo” value under setting [11] was 6.17 ± 1 h and the “total protein half-life in vivo” value under setting [12] was found to be 11.6 ± 0.85 h.
For the sequence “MLDEKSSNTASVVVLCTAPDEATAQDLAAKVLAEKLAACATLIPGATSLYYWEGKLEQEYEVQMILKTTVSHQQALLECLKSHHPYQTPELLVLPVTHGDTDYLSWLNASLR”, the “total protein half-life in vivo” value is, setting by setting: under setting [1], 4.37 h; under setting [2], 4.22 ± 1.7 h; under setting [3], 3.56 h; under setting [5], 3.26 ± 0.26 h; under setting [8], 7.25 h; under setting [9], 3.34 ± 0.39 h. The “total protein half-life in vivo” value under setting [10] turned out to be 4.91 ± 0.15 h and the “total protein half-life in vivo” value under setting [11] was found to be 5.13 ± 0.32 h.
As to “MQLRKPATAILALALSAGLAQADDAAPAAGSTLDKIAKNGVIVVGHRESSVPFSYYDNQQKVVGYSQDYSNAIVEAVKKKLNKPDLQVKLIPITSQNRIPLLQNGTFDFECGSTTNNVERQKQAAFSDTIFVVGTRLLTKKGGDIKDFANLKDKAVVVTSGTTSEVLLNKLNEEQKMNMRIISAKDHGDSFRTLESGRAVAFMMDDALLAGERAKAKKPDNWEIVGKPQSQEAYGCMLRKDDPQFKKLMDDTIAQVQTSGEAEKWFDKWFKNPIPPKNLNMNFELSDEMKALFKEPNDKALN”, the “total protein half-life in vivo” value under setting [1] stood at 6.32 ± 0.97 h; the “total protein half-life in vivo” value under setting [2] is 6.45 ± 1.6 h; the “total protein half-life in vivo” value under setting [3] is 6.8 ± 0.39 h; the “total protein half-life in vivo” value under setting [4] stood at 7.14 ± 0.3 h; the “total protein half-life in vivo” value under setting [5] is 6.02 ± 0.43 h; the “total protein half-life in vivo” value under setting [6] was 3.26 ± 0.14 h. Further, the “total protein half-life in vivo” value runs as follows: under setting [7], 6.76 ± 0.34 h; under setting [8], 11.3 ± 0.22 h; under setting [9], 5.9 ± 0.54 h; under setting [10], 14.1 ± 0.48 h; under setting [11], 5.81 ± 0.41 h; under setting [12], 13.2 ± 0.35 h.
“MTLTRREFIKHSGIAAGALVVTSAAPLPAWAEEKGGKILTAGRWGAMNVEVKDGKIVSSTGALAKTIPNSLQSTAADQVHTTARIQHPMVRKSYLDNPLQPAKGRGEDTYVQVSWEQALKLIHEQHDRIRKANGPSAIFAGSYGWRSSGVLHKAQTLLQRYMNLAGGYSGHSGDYSTGAAQVIMPHVVGSVEVYEQQTSWPLILENSQVVVLWGMNPLNTLKIAWSSTDEQGLEYFHQLKKSGKPVIAIDPIRSETIEFFDDNATWIAPNMGTDVALMLGIAHTLMTQGKHDKVFLEKYTTGYPQFEEYLTGKSDNTPKSAVWAAEITGVPEAQIVKLAELMAANRTMLMAGWGIQRQQYGEQKHWMLVTLAAMLGQIGTPGGGFGFSYHYSNGGNPTRVGGVLPEMSAAIAGHASEAADDGGMTAIPVARIVDALENPGGKYQHNGKEQTYPNIKMIWWAGGGNFTHHQDTNRLIKAWQKPEMIVVSECYWTAAAKHADIVLPITTSFERNDLTMTGDYSNQHIVPMKQAVAPQFEARNDFDVFADLAELLKPGGKEIYTEGKDEMAWLKFFYDAAQKGARAQRVTMPMFNAFWQQNKLIEMRHSEKNEQYVRYGDFRADPVKNALGTPSGKIEIYSKTLEKFGYKDCPAHPTWLAPDEWKGTADEKQLQLLTAHPAHRLHSQLNYAELRKKYAIADREPITIHTEDAARFGIANGDLVRVWNKRGQILTGAVVTDGIKKGVVCVHEGAWPDLENGLCKNGSANVLTADIPSSQLANACAGNSALVYIEKYTGNAPKLTAFDQPAVQA”: the “total protein half-life in vivo” value by setting is: under setting [1], 5.67 ± 0.3 h; under setting [4], 5.13 h; under setting [7], 4.75 ± 0.64 h; under setting [8], 11.5 ± 6.1 h; under setting [10], 8.13 h.
Regarding “MLFTLKKVIGNMLLPLPLMLLIIGAGLALLWFSRFQKTGKIFISIGWLALLLLSLQPVADRLLRPIESTYPTWNNSQKVDYIVVLGGGYTWNPQWAPSSNLINNSLPRLNEGIRLWRENPGSKLIFTGGVAKTNTVSTAEVGARVAQSLGVPREQIITLDLPKDTEEEAAAVKQAIGDAPFLLVTSASHLPRAMIFFQQEGLNPLPAPANQLAIDSPLNPWERAIPSPVWLMHSDRVGYETLGRIWQWLKGSSGEPRQE [P0AB01]”, the “total protein half-life in vivo” value is, setting by setting: under setting [1], 6.15 ± 0.43 h; under setting [2], 6.08 ± 0.23 h; under setting [4], 5.87 ± 0.097 h; under setting [5], 5.72 ± 0.58 h; under setting [6], 3.28 ± 0.37 h; under setting [7], 5.4 ± 0.28 h. The “total protein half-life in vivo” value is, setting by setting: under setting [8], 10.5 ± 4.9 h; under setting [9], 6.09 ± 0.25 h; under setting [11], 6.876 ± 0.0024 h; under setting [12], 10.6 ± 2.9 h.
